Legend:
[1] = target: catalytic domain of MMP-14 residues 110-300 (human, UniProt P50281 110-300); test: enzyme inhibition assay
[2] = target: catalytic domain of MMP-3 (WT), activated (UniProt P08254 100-272); test: enzyme inhibition assay
catalytic domain of MMP-3 (WT), activated, sequence (P08254 100-272): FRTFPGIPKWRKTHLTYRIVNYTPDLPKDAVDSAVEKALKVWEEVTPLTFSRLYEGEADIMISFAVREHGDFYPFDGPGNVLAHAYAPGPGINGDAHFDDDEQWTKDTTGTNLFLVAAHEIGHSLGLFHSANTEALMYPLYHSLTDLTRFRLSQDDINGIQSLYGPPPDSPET

Ki [1]: 0.53 ± 0.1 nM
Ki [2]: 5.9 ± 0.7 nM
B1: WT N-TIMP2 (N-terminal domain of tissue inhibitor of metalloproteinases-2), purified (domain or fragment, human, UniProt P16035 27-153, looked up)
chain: CSCSPVHPQQAFCNADVVIRAKAVSEKEVDSGNDIYGNPIKRIQYEIKQIKMFKGPEKDIEFIYTAPSSAVCGVSLDVGGKKEYLIAGKAEGDGKMHITLCDFIVPWDTLSTTQKKSLNHRYQMGCE

Reference: doi:10.1101/2022.12.29.522231 (bioRxiv, 2022)
